The chains are these.
B1: Phage-3958 (peptide)
peptide: TAPWCQPRWMCDGF
notes: tested as crude clonal phage supernatant
B2: Phage-3963 (peptide)
peptide: ISAECRPPWMCIGF
notes: as for B1
B3: Phage-3966 (peptide)
peptide: GSVFCIPTWMCEQS
notes: as for B1
B4: Phage-3964 (peptide)
peptide: ITRMCTPSWMCMSF
notes: as for B1
B5: Phage-3961 (peptide)
peptide: LVSWCTPPWMCEGV
notes: as for B1
B6: Phage-3960 (peptide)
peptide: EGGYCVPTWMCSGF
notes: as for B1
B7: Phage-3959 (peptide)
peptide: AEMLCVPPWMCKAF
notes: as for B1
B8: Phage-3957 (peptide)
peptide: TIQWCEPLWMCRGF
notes: as for B1
B9: Phage-3962 (peptide)
peptide: FDGWCVPAWMCYPF
notes: as for B1
B10: Phage-3956 (peptide)
peptide: DVLMCKPEWMCLGY
notes: as for B1
B11: Phage-3965 (peptide)
peptide: MATMCVPQWMCAGF
notes: as for B1

One experiment has as its target T1, Anti-PSMA Fab (biotinylated (site not stated)).
T1 construct: Biotinylated PSMA Fab captured on neutravidin plates in the phage ELISA; also called 006 PSMA Fab
Description: clonal phage ELISA on captured biotinylated PSMA Fab, anti-M13 HRP detection.
In the case of VFKMCVPMWMCQVS [Phage-3992], the “Phage binding ELISA signal, Anti-PSMA Fab” value was determined as 0.635.

Regarding HVQRCVPQWMCVGF [Phage-3987], the “Phage binding ELISA signal, Anti-PSMA Fab” value was 0.686.

Turning to VVVQCIPEWMCNGF [Phage-3981], the “Phage binding ELISA signal, Anti-PSMA Fab” value was determined as 0.729.

On to STPYCVPDWMCAGF [Phage-3988], for which the “Phage binding ELISA signal, Anti-PSMA Fab” value stood at 0.683.

Consider EWPICRPSWMCDDF [Phage-3994], for which the “Phage binding ELISA signal, Anti-PSMA Fab” value was determined as 0.63.

Consider IAVKCMPAWMCVGI [Phage-3993], for which the “Phage binding ELISA signal, Anti-PSMA Fab” value turned out to be 0.632.

For the molecule SYQLCKPEWMCHGW [Phage-3982], the “Phage binding ELISA signal, Anti-PSMA Fab” value turned out to be 0.715.

Take VENLCRPSWMCEGF [Phage-3985]: the “Phage binding ELISA signal, Anti-PSMA Fab” value came to 0.696.

LLIVCKPPWMCAGS [Phage-3990]: the “Phage binding ELISA signal, Anti-PSMA Fab” value came out at 0.666.

As for SVMNCVPLRMCEGF [Phage-3991], the “Phage binding ELISA signal, Anti-PSMA Fab” value was 0.644.

As for NGPMCVPQWMCDGT [Phage-3986], the “Phage binding ELISA signal, Anti-PSMA Fab” value was found to be 0.691.

Regarding MTDRCKPEWMCFGF [Phage-3989], the “Phage binding ELISA signal, Anti-PSMA Fab” value amounted to 0.677.

KHILCEPVWMCVGF [Phage-3984]: the “Phage binding ELISA signal, Anti-PSMA Fab” value worked out at 0.697.

As for YERMCSPEWMCWDF [Phage-3983], the “Phage binding ELISA signal, Anti-PSMA Fab” value worked out at 0.704.

The next experiment concerns the target T2, Anti-PSMA Fab (biotinylated (site not stated)).
T2 construct: Biotinylated PSMA Fab captured on neutravidin coated plates; also called 006 PSMA Fab
In words: clonal phage ELISA on plate-captured biotinylated PSMA Fab, blocking buffer alone.
Turning to B1, the “Phage binding ELISA signal, Anti-PSMA Fab” value stood at 0.828.

With B2, the “Phage binding ELISA signal, Anti-PSMA Fab” value came out at 0.815.

As for B3, the “Phage binding ELISA signal, Anti-PSMA Fab” value worked out at 0.813.

Regarding B4, the “Phage binding ELISA signal, Anti-PSMA Fab” value came to 0.814.

Turning to B5, the “Phage binding ELISA signal, Anti-PSMA Fab” value was 0.818.

Regarding B6, the “Phage binding ELISA signal, Anti-PSMA Fab” value is 0.822.

On to B7, for which the “Phage binding ELISA signal, Anti-PSMA Fab” value came out at 0.823.

Take B8: the “Phage binding ELISA signal, Anti-PSMA Fab” value turned out to be 0.835.

For B9, the “Phage binding ELISA signal, Anti-PSMA Fab” value amounted to 0.816.

B10: the “Phage binding ELISA signal, Anti-PSMA Fab” value worked out at 0.837.

As for B11, the “Phage binding ELISA signal, Anti-PSMA Fab” value was 0.814.

For another experiment, the target named is T3, PSMA Fab (biotinylated (site not stated)).
T3 construct: Biotinylated PSMA Fab captured on neutravidin plates for the clonal phage ELISA; also called Anti-PSMA Fab; 006 PSMA Fab
In words: clonal phage ELISA on captured PSMA Fab pre-incubated with PSMA antigen as competitor, anti-M13 HRP detection.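 Also: crude clonal phage supernatants tested by ELISA, wells first treated with blocking buffer plus PSMA antigen, bound phage read out via HRP-linked anti-M13 antibody.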
Turning to QQVRCVPDWMCSGF [Phage-3974], the “Phage binding ELISA signal, Anti-PSMA Fab in presence of PSMA antigen” value (shortened to “Phage binding ELISA signal … of PSMA antigen”) was 0.0755.

With GFRTCVPSWMCTGF [Phage-3978], the “Phage binding ELISA signal … of PSMA antigen” value was determined as 0.0906.

Consider DARMCIPMWMCQAF [Phage-3977], for which the “Phage binding ELISA signal … of PSMA antigen” value was 0.0713.

Consider STLLCTPEWMCFGM [Phage-3969], for which the “Phage binding ELISA signal … of PSMA antigen” value was 0.0553.

Regarding SYMRCEPEWMCSGL [Phage-3970], the “Phage binding ELISA signal … of PSMA antigen” value is 0.121.

With GGVMCRPMWMCAGF [Phage-3967], the “Phage binding ELISA signal … of PSMA antigen” value worked out at 0.0836.

With VQTRCVPAWMCDGF [Phage-3971], the “Phage binding ELISA signal … of PSMA antigen” value came out at 0.0744.

In the case of EYRECVPDWMCSGF [Phage-3980], the “Phage binding ELISA signal … of PSMA antigen” value amounted to 0.0722.

In the case of PAQICMPAWMCHGF [Phage-3976], the “Phage binding ELISA signal … of PSMA antigen” value was found to be 0.0646.

On to QMSMCKPAWMCTGL [Phage-3973], for which the “Phage binding ELISA signal … of PSMA antigen” value is 0.0909.

Regarding LSVECIPVWMCNGF [Phage-3979], the “Phage binding ELISA signal … of PSMA antigen” value stood at 0.0832.

Consider EIGACVPDWMCRGF [Phage-3968], for which the “Phage binding ELISA signal … of PSMA antigen” value was 0.0694.

Consider DARLCTPLWMCTGF [Phage-3972], for which the “Phage binding ELISA signal … of PSMA antigen” value came out at 0.0622.

As for EAKWCTPQWMCGGF [Phage-3975], the “Phage binding ELISA signal … of PSMA antigen” value was 0.0703.

The next experiment deals with T2, Anti-PSMA Fab. In words: clonal phage ELISA on plate-captured biotinylated PSMA Fab, wells pre-incubated with PSMA antigen as competitor.
Description: (§1) Clonal phage were harvested as crude supernatants and screened via standard ELISAs. […] Prior to the addition of clonal phage. wells were incubated with blocking buffer and PSMA antigen or blocking buffer alone. Without washing or aspirating, clonal phage supernatants were then added to the wells and incubated for a short time. Wells were then washed followed by detection of bound phage using a horse radish conjugated anti-M13 antibody.
Take B1: the “phage binding ELISA signal (Anti-PSMA Fab with PSMA)” value is 0.0701.

As to B2, the “phage binding ELISA signal (Anti-PSMA Fab with PSMA)” value was 0.0626.

As for B3, the “phage binding ELISA signal (Anti-PSMA Fab with PSMA)” value amounted to 0.07.

Take B4: the “phage binding ELISA signal (Anti-PSMA Fab with PSMA)” value came out at 0.078.

Consider B5, for which the “phage binding ELISA signal (Anti-PSMA Fab with PSMA)” value stood at 0.131.

In the case of B6, the “phage binding ELISA signal (Anti-PSMA Fab with PSMA)” value is 0.0786.

Consider B7, for which the “phage binding ELISA signal (Anti-PSMA Fab with PSMA)” value was found to be 0.0615.

As to B8, the “phage binding ELISA signal (Anti-PSMA Fab with PSMA)” value is 0.0643.

As to B9, the “phage binding ELISA signal (Anti-PSMA Fab with PSMA)” value came out at 0.0796.

On to B10, for which the “phage binding ELISA signal (Anti-PSMA Fab with PSMA)” value was determined as 0.0628.

On to B11, for which the “phage binding ELISA signal (Anti-PSMA Fab with PSMA)” value was 0.141.

The target of another experiment is T3, PSMA Fab. In words: clonal phage ELISA on biotinylated PSMA Fab captured on neutravidin, blocking buffer alone, anti-M13 HRP detection.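 Also: clonal phage were tested as crude supernatants, and the signal reflects phage still bound to the wells after washing.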
Description: as §1
QQVRCVPDWMCSGF [Phage-3974]: the “Phage binding ELISA signal, Anti-PSMA Fab” value was found to be 0.762.

For GFRTCVPSWMCTGF [Phage-3978], the “Phage binding ELISA signal, Anti-PSMA Fab” value amounted to 0.734.

Turning to DARMCIPMWMCQAF [Phage-3977], the “Phage binding ELISA signal, Anti-PSMA Fab” value amounted to 0.742.

Regarding STLLCTPEWMCFGM [Phage-3969], the “Phage binding ELISA signal, Anti-PSMA Fab” value came to 0.789.

As for SYMRCEPEWMCSGL [Phage-3970], the “Phage binding ELISA signal, Anti-PSMA Fab” value was 0.786.

Consider GGVMCRPMWMCAGF [Phage-3967], for which the “Phage binding ELISA signal, Anti-PSMA Fab” value worked out at 0.81.

For the molecule VQTRCVPAWMCDGF [Phage-3971], the “Phage binding ELISA signal, Anti-PSMA Fab” value was found to be 0.782.

Turning to EYRECVPDWMCSGF [Phage-3980], the “Phage binding ELISA signal, Anti-PSMA Fab” value turned out to be 0.731.

With PAQICMPAWMCHGF [Phage-3976], the “Phage binding ELISA signal, Anti-PSMA Fab” value was found to be 0.754.

With QMSMCKPAWMCTGL [Phage-3973], the “Phage binding ELISA signal, Anti-PSMA Fab” value turned out to be 0.767.

For the molecule LSVECIPVWMCNGF [Phage-3979], the “Phage binding ELISA signal, Anti-PSMA Fab” value worked out at 0.732.

EIGACVPDWMCRGF [Phage-3968]: the “Phage binding ELISA signal, Anti-PSMA Fab” value stood at 0.809.

With DARLCTPLWMCTGF [Phage-3972], the “Phage binding ELISA signal, Anti-PSMA Fab” value was 0.781.

On to EAKWCTPQWMCGGF [Phage-3975], for which the “Phage binding ELISA signal, Anti-PSMA Fab” value stood at 0.756.

The next experiment deals with T1, Anti-PSMA Fab. Description: clonal phage ELISA on captured biotinylated PSMA Fab pre-incubated with PSMA antigen as competitor, anti-M13 HRP detection.
Description: as §1
With VFKMCVPMWMCQVS [Phage-3992], the “Phage binding ELISA signal … of PSMA antigen” value turned out to be 0.0687.

Regarding HVQRCVPQWMCVGF [Phage-3987], the “Phage binding ELISA signal … of PSMA antigen” value was found to be 0.119.

As to VVVQCIPEWMCNGF [Phage-3981], the “Phage binding ELISA signal … of PSMA antigen” value was determined as 0.0683.

Consider STPYCVPDWMCAGF [Phage-3988], for which the “Phage binding ELISA signal … of PSMA antigen” value is 0.0729.

As to EWPICRPSWMCDDF [Phage-3994], the “Phage binding ELISA signal … of PSMA antigen” value worked out at 0.0604.

Consider IAVKCMPAWMCVGI [Phage-3993], for which the “Phage binding ELISA signal … of PSMA antigen” value worked out at 0.0897.

As for SYQLCKPEWMCHGW [Phage-3982], the “Phage binding ELISA signal … of PSMA antigen” value was determined as 0.0692.

With VENLCRPSWMCEGF [Phage-3985], the “Phage binding ELISA signal … of PSMA antigen” value came out at 0.112.

For LLIVCKPPWMCAGS [Phage-3990], the “Phage binding ELISA signal … of PSMA antigen” value was 0.0992.

In the case of SVMNCVPLRMCEGF [Phage-3991], the “Phage binding ELISA signal … of PSMA antigen” value amounted to 0.0968.

For the molecule NGPMCVPQWMCDGT [Phage-3986], the “Phage binding ELISA signal … of PSMA antigen” value stood at 0.0558.

For MTDRCKPEWMCFGF [Phage-3989], the “Phage binding ELISA signal … of PSMA antigen” value turned out to be 0.142.

For the molecule KHILCEPVWMCVGF [Phage-3984], the “Phage binding ELISA signal … of PSMA antigen” value worked out at 0.0708.

As to YERMCSPEWMCWDF [Phage-3983], the “Phage binding ELISA signal … of PSMA antigen” value is 0.0861.

Source of the values: patent publication US20260242478A1 (published 2026).
